The target in assay [1] is AgsA (aggregation-suppressing protein, small heat shock protein), wild type, His-tagged (Salmonella enterica serovar Typhimurium). Put plainly: FRET or BRET; data not shown; subunit exchange of fluorescein- and rhodamine-labelled AgsA at 45°C, 40 min.
For assay [2] the target is unchanged. As to the kind of experiment: SEC; Superdex 200 XK 16/70, 20 mM Tris-HCl pH 8.0, 1 mM EDTA, 100 mM NaCl, run at 25°C; apparent mass from a calibration curve. In general terms: SEC sorts molecules by how far they enter the pores of the column.
Assay [3] concerns the target ΔC11, C-terminal 11 AA truncated AgsA, His-tagged (Salmonella enterica serovar Typhimurium). As to the kind of experiment: SEC; Superdex 200 XK 16/70, 20 mM Tris-HCl pH 8.0, 1 mM EDTA, 100 mM NaCl, run at 42°C.
The target is the same in assay [4]. Put plainly: SEC; Superdex 200 XK 16/70, 20 mM Tris-HCl pH 8.0, 1 mM EDTA, 100 mM NaCl, run at 37°C.
For assay [5] the target is unchanged. Put plainly: SEC.

The text below walks through data of publication PMC2920228.

As usually defined, the stoichiometry N is a count of units in the complex or per binding partner.

Turning to “AgsA (aggregation-suppressing protein, small heat shock protein), wild type, His-tagged (natural protein)”, the decrease in donor fluorescence after 40 min in assay [1] was found to be 40%. Further, in assay [2], the stoichiometry N stood at 22 subunits.

On to “ΔC11, C-terminal 11 AA truncated AgsA, His-tagged (domain or fragment)”, for which the stoichiometry N is 2 subunits in assay [3], 2 subunits in assay [4] and 3 subunits in assay [5].
